From publication PMC3082538, “High-Throughput Protein Expression Using a Combination of Ligation-Independent Cloning (LIC) and Infrared Fluorescent Protein (IFP) Detection” (PLoS ONE, 2011)

Assays:
Assay in all cases: pull-down; 5 µg purified GST or GST-GRF fusion immobilised on BSA-pretreated magnetic glutathione agarose beads (MagneGST) with 0.5% Nonidet-P40 and 10% BSA; incubated with 1 µg purified IFP fusion protein, room temperature, 60 min; five washes with 0.5% Nonidet-P40; eluate read by infrared imaging (700 nm) in microtiter plates, then SDS-PAGE and in-gel detection
Conditions in all cases: both partners purified
GST-GRF1 fusion protein = target: T1, GST-GRF1 fusion protein (Arabidopsis thaliana, UniProt P42643 1-267)
T1 construct: GRF1 of Arabidopsis thaliana (AGI At4g09000), open reading frame in pDEST15; Printed size 58 kDa; Gateway attB linker between GST and GRF1; source: E. coli BL21 (DE3) pLysS, purified (GSTrap HP column, Äkta-FPLC); not shown: GST, N-terminal, kept
T1 sequence (looked up): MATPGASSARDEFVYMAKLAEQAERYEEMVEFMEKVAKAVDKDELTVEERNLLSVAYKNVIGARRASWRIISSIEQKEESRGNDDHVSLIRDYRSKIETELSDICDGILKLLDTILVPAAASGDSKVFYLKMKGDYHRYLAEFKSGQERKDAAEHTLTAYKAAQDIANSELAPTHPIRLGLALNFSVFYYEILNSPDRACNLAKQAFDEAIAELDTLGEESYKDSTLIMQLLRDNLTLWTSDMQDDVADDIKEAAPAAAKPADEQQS

GST-GRF2 fusion protein = target: T2, GST-GRF2 fusion protein (Arabidopsis thaliana, UniProt Q01525 1-259)
T2 construct: GRF2 of Arabidopsis thaliana (AGI At1g78300), open reading frame in pDEST15; Printed size 57 kDa; Gateway attB linker between GST and GRF2; source: E. coli BL21 (DE3) pLysS, purified (GSTrap HP column, Äkta-FPLC); not shown: GST, N-terminal, kept
T2 sequence (looked up): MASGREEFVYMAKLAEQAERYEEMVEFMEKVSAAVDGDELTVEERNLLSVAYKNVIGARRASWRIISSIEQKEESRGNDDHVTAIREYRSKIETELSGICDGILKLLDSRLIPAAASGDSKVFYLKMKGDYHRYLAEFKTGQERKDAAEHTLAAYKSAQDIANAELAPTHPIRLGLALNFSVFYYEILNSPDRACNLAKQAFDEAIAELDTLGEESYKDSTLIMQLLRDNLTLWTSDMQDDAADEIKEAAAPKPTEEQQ

GST-GRF3 fusion protein = target: T3, GST-GRF3 fusion protein (Arabidopsis thaliana, UniProt P42644 1-255)
T3 construct: GRF3 of Arabidopsis thaliana (AGI At5g38480), open reading frame in pDEST15; Printed size 56 kDa; Gateway attB linker between GST and GRF3; source: E. coli BL21 (DE3) pLysS, purified (GSTrap HP column, Äkta-FPLC); not shown: GST, N-terminal, kept
T3 sequence (looked up): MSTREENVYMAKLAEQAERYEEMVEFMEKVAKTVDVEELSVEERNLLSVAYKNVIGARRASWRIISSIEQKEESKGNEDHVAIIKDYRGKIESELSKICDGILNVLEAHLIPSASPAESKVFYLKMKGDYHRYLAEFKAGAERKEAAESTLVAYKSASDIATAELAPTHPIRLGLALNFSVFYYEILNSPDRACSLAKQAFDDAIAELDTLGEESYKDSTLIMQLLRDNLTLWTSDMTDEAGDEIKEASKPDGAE

GST-GRF4 fusion protein = target: T4, GST-GRF4 fusion protein (Arabidopsis thaliana, UniProt P46077 1-267)
T4 construct: GRF4 of Arabidopsis thaliana (AGI At1g35160), open reading frame in pDEST15; Printed size 58 kDa; Gateway attB linker between GST and GRF4; source: E. coli BL21 (DE3) pLysS, purified (GSTrap HP column, Äkta-FPLC); not shown: GST, N-terminal, kept
T4 sequence (looked up): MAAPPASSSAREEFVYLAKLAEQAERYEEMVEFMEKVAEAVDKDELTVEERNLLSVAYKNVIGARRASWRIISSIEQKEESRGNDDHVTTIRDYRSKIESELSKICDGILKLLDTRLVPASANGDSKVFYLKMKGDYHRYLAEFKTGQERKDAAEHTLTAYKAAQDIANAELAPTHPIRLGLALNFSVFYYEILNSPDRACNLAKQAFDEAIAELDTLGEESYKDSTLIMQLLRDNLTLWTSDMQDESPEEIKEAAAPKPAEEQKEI

GST-GRF5 fusion protein = target: T5, GST-GRF5 fusion protein (Arabidopsis thaliana, UniProt P42645 1-268)
T5 construct: GRF5 of Arabidopsis thaliana (AGI At5g16050), open reading frame in pDEST15; Printed size 58 kDa; Gateway attB linker between GST and GRF5; source: E. coli BL21 (DE3) pLysS, purified (GSTrap HP column, Äkta-FPLC); not shown: GST, N-terminal, kept
T5 sequence (looked up): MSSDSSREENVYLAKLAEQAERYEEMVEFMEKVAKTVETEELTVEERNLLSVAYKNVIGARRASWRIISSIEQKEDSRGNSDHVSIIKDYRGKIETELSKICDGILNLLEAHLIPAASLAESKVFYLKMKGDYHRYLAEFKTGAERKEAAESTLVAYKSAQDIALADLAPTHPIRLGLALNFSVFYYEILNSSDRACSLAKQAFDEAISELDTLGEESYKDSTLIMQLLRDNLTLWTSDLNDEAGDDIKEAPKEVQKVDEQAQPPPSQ

GST-GRF6 fusion protein = target: T6, GST-GRF6 fusion protein (Arabidopsis thaliana, UniProt P48349 1-248)
T6 construct: GRF6 of Arabidopsis thaliana (AGI At5g10450), open reading frame in pDEST15; Printed size 56 kDa; Gateway attB linker between GST and GRF6; source: E. coli BL21 (DE3) pLysS, purified (GSTrap HP column, Äkta-FPLC); not shown: GST, N-terminal, kept
T6 sequence (looked up): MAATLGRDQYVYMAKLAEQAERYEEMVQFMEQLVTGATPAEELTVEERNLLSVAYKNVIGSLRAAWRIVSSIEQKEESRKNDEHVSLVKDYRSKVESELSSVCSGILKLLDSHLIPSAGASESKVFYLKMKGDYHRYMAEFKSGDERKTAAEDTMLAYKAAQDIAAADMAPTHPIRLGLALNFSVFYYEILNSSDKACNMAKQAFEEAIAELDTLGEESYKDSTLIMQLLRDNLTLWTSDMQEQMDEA

Measured: binding result

B1: TPK1(1-79)-TEV-IFP-6xHis fusion protein (domain or fragment, Arabidopsis thaliana, UniProt Q8LBL1 1-79, looked up)
chain: MSSDAARTPLLPTEKIDTMAQDFNLNSRTSSSRKRRLRRSRSAPRGDCMYNDDVKIDEPPPHPSKIPMFSDLNPNLRRV
notes: potassium channel TPK1 of Arabidopsis thaliana (AGI At5g55630), N-terminal cytosolic part, amino acids 1-79; Between TPK1(1-79) and the IFP stand residues from the LIC site and the TEV cleavage site ENLYFQG (LC2 vector: ProteinX-TEV-IFP-6xHis); Printed size 47.6-48 kDa; The IFP moiety carries the chromophore biliverdin (cells grown with hemin); also called TPK1-TEV-IFP-6xHis; …
binds: all assays above
